According to article PMC4230594 (Molecular Biology of the Cell, 2014):

Target: T1, HA-Rlf (mouse, UniProt Q61193 1-778)
T1 sequence (looked up): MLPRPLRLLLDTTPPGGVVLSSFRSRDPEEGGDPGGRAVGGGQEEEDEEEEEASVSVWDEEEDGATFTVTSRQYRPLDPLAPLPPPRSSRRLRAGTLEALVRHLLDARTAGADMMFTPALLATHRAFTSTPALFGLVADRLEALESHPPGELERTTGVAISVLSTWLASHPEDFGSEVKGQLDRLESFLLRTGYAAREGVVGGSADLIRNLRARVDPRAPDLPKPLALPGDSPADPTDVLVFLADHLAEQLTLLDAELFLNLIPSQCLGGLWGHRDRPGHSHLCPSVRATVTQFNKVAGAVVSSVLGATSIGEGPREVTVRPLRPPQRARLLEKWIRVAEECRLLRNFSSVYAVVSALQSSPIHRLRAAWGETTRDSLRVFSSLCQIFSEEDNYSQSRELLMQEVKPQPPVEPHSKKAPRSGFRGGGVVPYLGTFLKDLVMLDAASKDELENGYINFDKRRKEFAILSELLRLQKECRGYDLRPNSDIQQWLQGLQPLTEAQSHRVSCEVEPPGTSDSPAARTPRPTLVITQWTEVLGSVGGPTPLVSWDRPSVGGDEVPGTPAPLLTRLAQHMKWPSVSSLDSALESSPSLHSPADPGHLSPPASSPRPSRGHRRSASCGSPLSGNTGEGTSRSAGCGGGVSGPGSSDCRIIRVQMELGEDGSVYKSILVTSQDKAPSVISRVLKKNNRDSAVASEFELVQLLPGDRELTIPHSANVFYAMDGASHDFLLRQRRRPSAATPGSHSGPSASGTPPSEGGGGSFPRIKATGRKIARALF
Assay: co-IP

B1: Myc-Rab10 (QL) (natural protein, UniProt P61026 1-200, looked up)
chain: MAKKTYDLLFKLLLIGDSGVGKTCVLFRFSDDAFNTTFISTIGIDFKIKTVELQGKKIKLQIWDTAGLERFHTITTSYYRGAMGIMLVYDITNGKSFENISKWLRNIDEHANEDVERMLLGNKCDMDDKRVVPKGKGEQIAREHGIRFFETSAKANINIEKAFLTLAEDILRKTPVKEPNSENVDISSGGGVTGWKSKCC
- fold binding against wild-type Rab10: 2 fold
